This data set deals with T1, KH9-OEP34 (CTP) (synthetic).
T1 sequence: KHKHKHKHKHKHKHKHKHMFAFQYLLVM
In words: free peptide quantification. Particulars: in water; N/P 0.5-5.0; value stated as up to 64%; pDNA/CTP complexes formed in water, N/P 0.1-25, agarose gel EMSA; pH, salt and temperature not given in the material. A general note: Mobility shift assays separate free from complexed probe on a gel.

Results on 1 substance are retold here after publication PMC6891901.

Consider pPpsbA::Rluc, for which the binding signal (% of CTP bound (maximum)) was determined as 64.
